Results as given in publication PMC8080067, “Tight binding of cytochrome b5 to cytochrome P450 17A1 is a critical feature of stimulation of C21 steroid lyase activity and androgen synthesis” (The Journal of Biological Chemistry, 2021).

Legend:
P450 17A1 = test system: P450 17A1; set-up: method as in PMID 30468857; settings: SPR; cited from earlier work
P450 17A1 R358Q variant = target: T1, P450 17A1 R358Q variant (Homo sapiens, UniProt P05093, R358Q)
T1 sequence (P05093 1-508 R358Q): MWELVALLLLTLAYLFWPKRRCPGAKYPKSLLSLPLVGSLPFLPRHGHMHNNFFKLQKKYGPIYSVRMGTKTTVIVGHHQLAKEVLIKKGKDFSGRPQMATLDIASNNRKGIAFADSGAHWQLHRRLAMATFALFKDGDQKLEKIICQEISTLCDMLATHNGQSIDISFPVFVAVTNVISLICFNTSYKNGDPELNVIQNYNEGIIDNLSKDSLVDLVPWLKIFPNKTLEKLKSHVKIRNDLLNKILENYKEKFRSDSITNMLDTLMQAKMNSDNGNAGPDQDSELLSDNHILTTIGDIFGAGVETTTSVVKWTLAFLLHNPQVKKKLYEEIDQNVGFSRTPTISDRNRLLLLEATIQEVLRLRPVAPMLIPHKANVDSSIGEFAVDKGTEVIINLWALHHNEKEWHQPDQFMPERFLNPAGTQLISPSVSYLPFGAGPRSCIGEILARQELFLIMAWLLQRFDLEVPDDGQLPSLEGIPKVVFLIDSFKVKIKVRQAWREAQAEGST
Description: (§1) P450 catalytic activity assays to measure steroid hydroxylation and lyase reactions were carried out as described previously ([23], [37], [64]).
(§2) The reactions were initiated by adding an NADPH-regenerating system (final concentrations of 15 mM glucose 6-phosphate, 1.5 mM NADP^+, and 1 IU ml^−1 glucose 6-phosphate dehydrogenase) ([75]) and terminated by quenching and extracting with 2.0 ml CH2Cl2. Aliquots of the organic phases were dried and then dissolved in 100 μl of a CH3CN/H2O (1:1, v/v) mixture. […] The extraction procedure was then repeated, and the (Δ^4) reaction products were analyzed in a Waters Acquity UPLC system using a BEH C18 octadecylsilane column (2.1 mm × 100 mm, 1.7 μm). The reaction products were resolved using a mobile phase composed of solvents A (70% CH3OH, 30% H2O, v/v) and B (CH3CN), at a flow rate of 0.2 ml min^−1. The mobile phase linear gradient proceeded as follows: 0 to 1 min, 5% B; 4 min, 30% B; 4.5 min, 40% B; 4.55 to 6.75 min, 95% BA; and 7 to 10 min, 5% B. The reaction products were identified by coelution with commercial standards and quantified by the A243 peak areas. Steady-state kinetic parameters were estimated using nonlinear regression of hyperbolic fits in GraphPad Prism software, with equations used for kcat and the specificity constant kcat/Km ([76]): Y = (ksp ∗ X)/(1 + (ksp ∗ X/kcat)) and then deriving Km by division.

P450 17A1 R347H variant = target: T2, P450 17A1 R347H variant (Homo sapiens, UniProt P05093, R347H)
T2 sequence (P05093 1-508 R347H): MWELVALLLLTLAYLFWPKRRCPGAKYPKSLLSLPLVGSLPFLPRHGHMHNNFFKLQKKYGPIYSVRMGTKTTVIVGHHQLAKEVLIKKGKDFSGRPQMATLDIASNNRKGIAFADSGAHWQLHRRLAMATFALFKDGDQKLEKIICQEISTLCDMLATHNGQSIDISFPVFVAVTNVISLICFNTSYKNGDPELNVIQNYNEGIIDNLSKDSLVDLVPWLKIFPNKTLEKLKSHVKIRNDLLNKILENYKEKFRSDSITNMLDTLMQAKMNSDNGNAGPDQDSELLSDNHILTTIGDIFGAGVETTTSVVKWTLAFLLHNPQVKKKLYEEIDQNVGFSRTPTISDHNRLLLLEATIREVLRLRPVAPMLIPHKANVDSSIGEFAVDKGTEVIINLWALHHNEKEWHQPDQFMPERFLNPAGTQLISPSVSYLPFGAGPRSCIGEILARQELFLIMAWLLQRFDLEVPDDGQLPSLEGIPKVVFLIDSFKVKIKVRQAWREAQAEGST
Description: as §1, §2

WT P450 17A1 = target: T3, WT P450 17A1 (Homo sapiens, UniProt P05093); type: biochemical; set-up: made in house; host or cells: Escherichia coli (P450 17A1 in JM109)
T3 sequence (P05093 1-508): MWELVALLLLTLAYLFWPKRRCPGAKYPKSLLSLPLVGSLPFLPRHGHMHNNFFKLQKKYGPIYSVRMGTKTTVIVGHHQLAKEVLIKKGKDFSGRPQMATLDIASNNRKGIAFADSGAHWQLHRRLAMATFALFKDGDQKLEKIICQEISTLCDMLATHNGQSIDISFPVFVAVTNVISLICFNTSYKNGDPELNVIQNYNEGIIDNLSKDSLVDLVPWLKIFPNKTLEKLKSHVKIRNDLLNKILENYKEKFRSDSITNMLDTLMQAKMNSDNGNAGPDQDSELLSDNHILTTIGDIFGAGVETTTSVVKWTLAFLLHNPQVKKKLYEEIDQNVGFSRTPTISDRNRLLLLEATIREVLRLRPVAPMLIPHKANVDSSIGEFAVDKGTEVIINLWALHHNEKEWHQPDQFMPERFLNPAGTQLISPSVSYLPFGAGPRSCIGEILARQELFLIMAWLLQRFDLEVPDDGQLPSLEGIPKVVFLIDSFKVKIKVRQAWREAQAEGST
Description: Figure S4. Stimulation of lyase activities by b5, T70C- b5, and NanoTemper Blue-T70C-b5. Catalytic assays for the lyase reactions were performed and analyzed as described in the main text.

B1: b5: recombinant human cytochrome b5, unlabeled (protein)
chain: MAEQSDEAVKYYTLEEIQKHNHSKSTWLILHHKVYDLTKFLEEHPGGEEVLREQAGGDATENFEDVGHSTDAREMSKTFIIGELHPDDRPKLNKPPETLITTIDSSSS
In the case of B1, the on-rate constants (P450 17A1) is listed as 360 to 5000 M⁻¹ s⁻¹, the “stimulation of lyase reactions” value (P450 17A1 R358Q variant) is listed as “did not display b5 concentration-dependent stimulation” and the “stimulation of lyase reactions” value (P450 17A1 R347H variant) is listed as “did not display b5 concentration-dependent stimulation”. For the same molecule, the “stimulation of lyase activities” value (WT P450 17A1) was “stimulated by b5 in a concentration-dependent manner”.
